Laboratory results reported in paper PMC5384220, “Highly selective inhibition of histone demethylases by de novo macrocyclic peptides” (Nature Communications, 2017).

Assays:
[1] = molecular target: T1, His-KDM4A_(1–359)-Bio (human, UniProt O75164 1-359, biotin on the AviTag (>95% biotinylation)); experiment: BLI; His-KDM4A(1–359)-Bio (70 nM) immobilised on super streptavidin biosensor, peptides at different concentrations in solution; OctetRed 384; 50 mM HEPES pH 7.5, 150 mM NaCl, 10 μM ammonium iron(II) sulphate; conditions: both partners purified
T1 construct: KDM4A, residues 1-359, cloned into pNIC-Bio3; also called His-KDM4A-Bio; His-KDM4A with biotin; not shown: AviTag, C-terminal, kept
T1 sequence (looked up): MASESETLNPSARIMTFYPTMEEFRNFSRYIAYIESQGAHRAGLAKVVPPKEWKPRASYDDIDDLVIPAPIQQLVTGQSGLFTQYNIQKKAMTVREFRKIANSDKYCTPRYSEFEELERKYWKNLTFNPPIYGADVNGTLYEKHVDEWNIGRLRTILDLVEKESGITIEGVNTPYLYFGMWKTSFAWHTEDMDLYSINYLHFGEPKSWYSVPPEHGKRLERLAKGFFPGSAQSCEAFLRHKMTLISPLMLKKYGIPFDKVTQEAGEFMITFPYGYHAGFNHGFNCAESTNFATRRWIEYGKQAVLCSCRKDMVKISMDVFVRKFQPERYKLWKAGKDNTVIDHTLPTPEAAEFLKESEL

[2] = molecular target: factor inhibiting HIF (UniProt Q9NWT6 1-349); experiment: cell-based or functional assay
factor inhibiting HIF, sequence (Q9NWT6 whole entry, the tested form may be a part): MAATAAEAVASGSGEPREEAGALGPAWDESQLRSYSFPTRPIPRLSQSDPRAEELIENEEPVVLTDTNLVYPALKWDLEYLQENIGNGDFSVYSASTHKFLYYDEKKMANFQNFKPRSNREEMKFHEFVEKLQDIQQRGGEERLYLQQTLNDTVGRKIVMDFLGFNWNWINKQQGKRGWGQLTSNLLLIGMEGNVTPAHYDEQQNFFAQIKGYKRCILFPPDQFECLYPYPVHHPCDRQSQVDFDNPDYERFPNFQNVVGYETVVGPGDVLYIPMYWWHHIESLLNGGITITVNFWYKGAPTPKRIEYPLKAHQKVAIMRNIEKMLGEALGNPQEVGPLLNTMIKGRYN

[3] = molecular target: prolyl hydroxylase domain 2 (UniProt Q9GZT9 1-426); experiment: cell-based or functional assay
prolyl hydroxylase domain 2, sequence (Q9GZT9 whole entry, the tested form may be a part): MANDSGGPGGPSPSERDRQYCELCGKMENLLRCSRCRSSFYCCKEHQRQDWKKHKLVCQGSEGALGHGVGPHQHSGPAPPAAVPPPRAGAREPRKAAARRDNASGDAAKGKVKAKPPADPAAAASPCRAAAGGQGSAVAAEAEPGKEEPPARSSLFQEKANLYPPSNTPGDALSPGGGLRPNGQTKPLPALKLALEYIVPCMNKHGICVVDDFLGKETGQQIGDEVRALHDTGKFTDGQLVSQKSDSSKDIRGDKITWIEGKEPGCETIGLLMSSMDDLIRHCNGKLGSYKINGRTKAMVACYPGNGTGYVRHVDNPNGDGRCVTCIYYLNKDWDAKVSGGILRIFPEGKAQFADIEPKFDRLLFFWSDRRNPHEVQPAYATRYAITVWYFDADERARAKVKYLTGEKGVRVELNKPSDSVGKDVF

[4] = molecular target: KDM1A (human, UniProt O60341 1-852); experiment: cell-based or functional assay
[5] = molecular target: T2, KDM3A (human, UniProt Q9Y4C1 1-1321); experiment: cell-based or functional assay
T2 sequence (looked up): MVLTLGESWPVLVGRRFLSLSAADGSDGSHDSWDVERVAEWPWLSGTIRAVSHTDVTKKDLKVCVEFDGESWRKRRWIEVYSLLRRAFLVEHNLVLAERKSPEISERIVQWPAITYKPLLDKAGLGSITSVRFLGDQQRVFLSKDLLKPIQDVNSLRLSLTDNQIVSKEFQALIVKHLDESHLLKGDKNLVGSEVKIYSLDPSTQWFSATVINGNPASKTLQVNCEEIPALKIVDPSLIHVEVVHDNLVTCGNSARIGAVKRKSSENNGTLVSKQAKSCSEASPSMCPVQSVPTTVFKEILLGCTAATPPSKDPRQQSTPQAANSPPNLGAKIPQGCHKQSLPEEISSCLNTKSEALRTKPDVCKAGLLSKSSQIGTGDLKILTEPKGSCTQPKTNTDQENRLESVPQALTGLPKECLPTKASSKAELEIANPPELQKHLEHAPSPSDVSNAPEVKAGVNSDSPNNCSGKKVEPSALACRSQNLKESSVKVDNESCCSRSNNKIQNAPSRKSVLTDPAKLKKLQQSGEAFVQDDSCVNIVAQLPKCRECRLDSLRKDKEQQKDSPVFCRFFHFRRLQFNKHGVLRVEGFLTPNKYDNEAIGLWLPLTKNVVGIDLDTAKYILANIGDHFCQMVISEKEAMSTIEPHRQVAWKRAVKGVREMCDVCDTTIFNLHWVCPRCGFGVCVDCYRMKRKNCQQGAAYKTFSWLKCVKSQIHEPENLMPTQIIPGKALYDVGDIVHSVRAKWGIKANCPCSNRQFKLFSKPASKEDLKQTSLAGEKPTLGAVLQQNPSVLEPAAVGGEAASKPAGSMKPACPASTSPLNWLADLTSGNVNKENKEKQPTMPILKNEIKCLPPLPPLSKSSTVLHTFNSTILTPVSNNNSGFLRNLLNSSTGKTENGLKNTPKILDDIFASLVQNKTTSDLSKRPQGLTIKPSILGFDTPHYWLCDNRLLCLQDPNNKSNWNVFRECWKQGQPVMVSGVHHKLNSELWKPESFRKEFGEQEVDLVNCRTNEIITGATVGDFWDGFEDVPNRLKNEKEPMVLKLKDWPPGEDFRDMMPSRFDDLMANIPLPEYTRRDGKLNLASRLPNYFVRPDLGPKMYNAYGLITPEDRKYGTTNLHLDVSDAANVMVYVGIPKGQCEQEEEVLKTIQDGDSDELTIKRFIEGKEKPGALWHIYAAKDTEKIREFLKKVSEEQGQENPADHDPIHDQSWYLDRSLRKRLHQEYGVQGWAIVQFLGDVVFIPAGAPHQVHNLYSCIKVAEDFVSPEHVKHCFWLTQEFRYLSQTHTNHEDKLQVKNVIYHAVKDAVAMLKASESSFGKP

[6] = molecular target: T3, KDM2A (human, UniProt Q9Y2K7 1-1162); experiment: cell-based or functional assay
T3 sequence (looked up): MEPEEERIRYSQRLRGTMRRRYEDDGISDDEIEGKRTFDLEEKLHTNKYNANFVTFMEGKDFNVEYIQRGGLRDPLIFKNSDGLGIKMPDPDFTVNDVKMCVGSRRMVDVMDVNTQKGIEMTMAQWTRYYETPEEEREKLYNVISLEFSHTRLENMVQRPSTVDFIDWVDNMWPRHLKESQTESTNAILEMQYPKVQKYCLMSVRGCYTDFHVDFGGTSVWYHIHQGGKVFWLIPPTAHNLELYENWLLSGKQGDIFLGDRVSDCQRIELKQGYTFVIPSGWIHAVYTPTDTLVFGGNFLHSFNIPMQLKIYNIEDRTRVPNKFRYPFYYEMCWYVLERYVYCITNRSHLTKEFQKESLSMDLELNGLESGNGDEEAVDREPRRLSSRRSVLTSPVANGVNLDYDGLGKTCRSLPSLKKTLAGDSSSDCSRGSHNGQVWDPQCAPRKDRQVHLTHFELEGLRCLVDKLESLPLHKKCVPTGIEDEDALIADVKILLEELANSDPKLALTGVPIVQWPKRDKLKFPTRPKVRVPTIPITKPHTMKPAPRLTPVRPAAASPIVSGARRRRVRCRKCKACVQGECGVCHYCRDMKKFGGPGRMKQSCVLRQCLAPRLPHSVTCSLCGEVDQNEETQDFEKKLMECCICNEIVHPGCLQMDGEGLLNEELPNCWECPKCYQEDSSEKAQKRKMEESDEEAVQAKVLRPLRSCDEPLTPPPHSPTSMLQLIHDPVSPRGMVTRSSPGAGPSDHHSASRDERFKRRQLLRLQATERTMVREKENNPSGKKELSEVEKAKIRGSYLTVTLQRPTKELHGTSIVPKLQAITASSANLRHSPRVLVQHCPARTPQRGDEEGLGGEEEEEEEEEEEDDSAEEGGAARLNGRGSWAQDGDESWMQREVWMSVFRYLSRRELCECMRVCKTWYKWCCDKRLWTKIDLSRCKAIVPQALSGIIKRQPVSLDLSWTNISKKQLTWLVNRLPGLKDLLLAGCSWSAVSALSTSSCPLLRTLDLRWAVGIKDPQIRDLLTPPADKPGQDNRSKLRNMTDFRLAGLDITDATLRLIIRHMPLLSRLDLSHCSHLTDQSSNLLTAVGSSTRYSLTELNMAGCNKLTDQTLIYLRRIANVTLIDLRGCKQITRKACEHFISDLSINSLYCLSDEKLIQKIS

[7] = molecular target: KDM6B (human, UniProt O15054 1-1643); experiment: cell-based or functional assay
KDM6B, sequence (O15054 whole entry): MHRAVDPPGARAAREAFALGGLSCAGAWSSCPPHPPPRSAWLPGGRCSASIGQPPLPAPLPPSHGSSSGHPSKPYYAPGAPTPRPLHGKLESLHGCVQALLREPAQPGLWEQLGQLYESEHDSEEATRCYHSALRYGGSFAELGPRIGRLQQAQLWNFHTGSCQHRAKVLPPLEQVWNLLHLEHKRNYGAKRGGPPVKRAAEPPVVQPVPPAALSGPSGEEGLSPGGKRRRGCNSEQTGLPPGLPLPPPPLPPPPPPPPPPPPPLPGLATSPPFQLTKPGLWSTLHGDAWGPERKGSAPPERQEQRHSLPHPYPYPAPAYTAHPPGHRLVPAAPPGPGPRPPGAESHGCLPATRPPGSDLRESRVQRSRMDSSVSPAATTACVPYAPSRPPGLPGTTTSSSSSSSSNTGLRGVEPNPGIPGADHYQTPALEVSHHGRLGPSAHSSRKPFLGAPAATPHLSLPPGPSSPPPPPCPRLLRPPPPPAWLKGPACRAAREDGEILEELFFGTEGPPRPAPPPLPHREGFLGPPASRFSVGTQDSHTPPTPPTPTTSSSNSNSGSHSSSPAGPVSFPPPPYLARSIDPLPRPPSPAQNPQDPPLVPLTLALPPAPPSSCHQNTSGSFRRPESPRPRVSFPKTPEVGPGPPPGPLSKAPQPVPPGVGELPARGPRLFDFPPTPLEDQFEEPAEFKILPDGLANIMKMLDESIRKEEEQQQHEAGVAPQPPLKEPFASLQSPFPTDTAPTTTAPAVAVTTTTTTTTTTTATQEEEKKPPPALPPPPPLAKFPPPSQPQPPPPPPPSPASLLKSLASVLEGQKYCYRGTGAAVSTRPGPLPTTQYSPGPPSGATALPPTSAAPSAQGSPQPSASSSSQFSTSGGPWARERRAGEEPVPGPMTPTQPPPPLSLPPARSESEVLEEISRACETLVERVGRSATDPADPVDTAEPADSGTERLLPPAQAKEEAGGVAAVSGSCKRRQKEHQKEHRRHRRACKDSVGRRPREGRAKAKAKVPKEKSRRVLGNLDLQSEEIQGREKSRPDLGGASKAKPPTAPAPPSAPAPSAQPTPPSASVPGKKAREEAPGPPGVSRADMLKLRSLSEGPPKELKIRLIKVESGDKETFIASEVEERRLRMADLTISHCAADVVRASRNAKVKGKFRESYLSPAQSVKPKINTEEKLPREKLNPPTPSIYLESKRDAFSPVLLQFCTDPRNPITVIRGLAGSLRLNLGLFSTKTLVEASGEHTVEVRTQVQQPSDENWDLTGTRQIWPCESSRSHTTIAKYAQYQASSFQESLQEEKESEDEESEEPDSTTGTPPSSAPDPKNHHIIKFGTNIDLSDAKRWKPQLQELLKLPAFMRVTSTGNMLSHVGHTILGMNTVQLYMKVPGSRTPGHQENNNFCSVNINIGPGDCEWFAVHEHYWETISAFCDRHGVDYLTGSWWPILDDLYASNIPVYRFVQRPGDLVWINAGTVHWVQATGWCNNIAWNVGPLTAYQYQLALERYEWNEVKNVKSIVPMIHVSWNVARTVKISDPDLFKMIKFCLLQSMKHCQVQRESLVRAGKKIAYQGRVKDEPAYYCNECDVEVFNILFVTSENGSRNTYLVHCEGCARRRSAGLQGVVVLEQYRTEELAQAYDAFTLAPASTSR

[8] = molecular target: T4, KDM4D (human, UniProt Q6B0I6 1-523); experiment: cell-based or functional assay
T4 sequence (looked up): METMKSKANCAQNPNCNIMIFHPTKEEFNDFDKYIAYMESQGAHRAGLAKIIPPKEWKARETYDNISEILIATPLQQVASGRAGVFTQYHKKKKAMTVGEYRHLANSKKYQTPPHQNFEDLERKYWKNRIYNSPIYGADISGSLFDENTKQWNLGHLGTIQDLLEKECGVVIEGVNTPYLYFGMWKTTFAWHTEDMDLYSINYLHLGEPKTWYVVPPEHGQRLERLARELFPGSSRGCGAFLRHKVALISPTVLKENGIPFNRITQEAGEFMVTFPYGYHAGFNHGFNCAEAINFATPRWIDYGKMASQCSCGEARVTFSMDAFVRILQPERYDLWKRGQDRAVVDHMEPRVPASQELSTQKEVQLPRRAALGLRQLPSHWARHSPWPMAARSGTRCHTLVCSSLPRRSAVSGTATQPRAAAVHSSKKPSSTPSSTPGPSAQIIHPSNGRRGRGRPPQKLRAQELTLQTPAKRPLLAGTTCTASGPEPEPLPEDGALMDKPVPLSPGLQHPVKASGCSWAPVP

[9] = molecular target: KDM5C (human, UniProt P41229 1-1560); experiment: cell-based or functional assay
KDM5C, sequence (P41229 whole entry): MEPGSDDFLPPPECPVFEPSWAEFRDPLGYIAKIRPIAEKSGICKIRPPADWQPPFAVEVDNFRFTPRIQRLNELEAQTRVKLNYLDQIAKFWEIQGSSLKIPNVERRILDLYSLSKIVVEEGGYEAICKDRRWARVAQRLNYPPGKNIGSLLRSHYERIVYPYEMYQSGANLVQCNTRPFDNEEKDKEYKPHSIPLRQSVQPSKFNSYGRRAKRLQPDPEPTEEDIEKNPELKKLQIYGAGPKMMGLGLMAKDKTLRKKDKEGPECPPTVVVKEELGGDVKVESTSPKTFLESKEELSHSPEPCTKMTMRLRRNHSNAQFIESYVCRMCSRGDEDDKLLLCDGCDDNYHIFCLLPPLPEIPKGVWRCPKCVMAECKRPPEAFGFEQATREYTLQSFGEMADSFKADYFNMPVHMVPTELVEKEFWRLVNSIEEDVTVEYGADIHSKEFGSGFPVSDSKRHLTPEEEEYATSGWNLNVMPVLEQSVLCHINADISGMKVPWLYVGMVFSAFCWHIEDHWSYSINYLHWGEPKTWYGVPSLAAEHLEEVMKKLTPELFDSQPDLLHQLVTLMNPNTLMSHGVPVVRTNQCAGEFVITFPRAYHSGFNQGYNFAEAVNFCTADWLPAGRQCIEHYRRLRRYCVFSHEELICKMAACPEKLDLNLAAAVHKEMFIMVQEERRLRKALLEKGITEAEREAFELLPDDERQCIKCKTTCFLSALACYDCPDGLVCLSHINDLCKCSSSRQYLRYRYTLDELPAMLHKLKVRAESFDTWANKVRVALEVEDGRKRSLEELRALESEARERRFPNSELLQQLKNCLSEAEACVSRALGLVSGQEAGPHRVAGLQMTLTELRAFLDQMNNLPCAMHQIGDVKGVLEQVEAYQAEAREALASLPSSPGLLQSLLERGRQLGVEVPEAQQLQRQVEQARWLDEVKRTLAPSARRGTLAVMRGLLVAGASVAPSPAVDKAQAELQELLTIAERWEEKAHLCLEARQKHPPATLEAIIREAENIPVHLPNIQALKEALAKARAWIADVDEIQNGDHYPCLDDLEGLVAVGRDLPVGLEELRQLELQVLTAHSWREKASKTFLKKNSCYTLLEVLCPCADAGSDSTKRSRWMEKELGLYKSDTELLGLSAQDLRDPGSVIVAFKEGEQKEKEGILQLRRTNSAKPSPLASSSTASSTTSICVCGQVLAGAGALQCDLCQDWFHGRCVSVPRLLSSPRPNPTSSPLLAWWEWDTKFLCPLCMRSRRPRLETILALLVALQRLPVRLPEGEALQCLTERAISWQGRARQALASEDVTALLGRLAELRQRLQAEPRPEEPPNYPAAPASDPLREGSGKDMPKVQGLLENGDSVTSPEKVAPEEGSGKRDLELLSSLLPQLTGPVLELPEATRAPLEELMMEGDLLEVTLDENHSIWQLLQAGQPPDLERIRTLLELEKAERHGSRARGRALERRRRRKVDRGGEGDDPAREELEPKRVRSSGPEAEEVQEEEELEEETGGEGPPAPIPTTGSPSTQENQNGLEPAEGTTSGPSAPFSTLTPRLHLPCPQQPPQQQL

B1: H3(1–15)K9me3 (peptide, UniProt P68431 2-16, looked up)
peptide: ARTKQTARKSTGGKA
modifications: trimethyl-lysine at 9
notes: histone H3, residues 1-15, Lys9 trimethylated; The H3K9me3 substrate of the formaldehyde dehydrogenase coupled assay is not described further; this molecule is used for it; also called histone H3K9 peptide; H3K9me3
fold weaker Kd than the cyclic peptides CP2, CP4 and CP5 [1]: > 1000 fold

B2: CP5 (peptide)
chain: YSKYTQSGVRWVC
modifications: not fully specified; N-terminal L-Tyr (^LTyr library, N-chloroacetyl-L-Tyr) cyclised by a thioether to a downstream cysteine
IC50 of inhibition of FIH (MALDI–TOF MS assay) [2]: > 1000 µM
IC50 of inhibition of PHD2 (MALDI–TOF MS assay) [3]: > 1000 µM
IC50 of inhibition of KDM1A/LSD1 (fluorescence-based assay) [4]: > 10 µM
IC50 of inhibition of demethylase activity (AlphaScreen activity assay) [5]: > 10 µM
IC50 of inhibition of demethylase activity (AlphaScreen activity assay) [6]: > 10 µM
IC50 of inhibition of demethylase activity (AlphaScreen activity assay) [7]: > 10 µM
IC50 of inhibition of demethylase activity (AlphaScreen activity assay) [8]: > 10 µM
IC50 of inhibition of demethylase activity (AlphaScreen activity assay) [9]: > 10 µM
